Results as given in patent publication US20200291116A1 (ABEXXA BIOLOGICS, published 2020).

Key:
[1] = target: T1, HLA-E*0103 (extracellular domain with beta-2-microglobulin, recombinant) (human); assay: in vitro refold, Superdex 75, SEC-HPLC, 3D12 binding
[2] = target: T1, HLA-E*0103 (extracellular domain with …); assay: peptide binding and in vitro refolding

Row | Binder | binding result [1] | binding result [2]
1 | GLADKVYFL [peptide GLADKVYFL (CAD protein)] | binds | –
2 | YLLPAIVHI [peptide YLLPAIVHI (RNA Helicase p68)] | – | binds
